# Measured values as given in patent US20100210525A1 (University of California, published 2010).
# Non-standard residues stand in square brackets, D forms with d. No end group written: not given here. pY = N[C@@H](Cc1ccc(OP(=O)(O)O)cc1)C(=O)O
# B1: β3/PIPKIγ chimeric peptide, wild type (peptide)
# peptide: KKLLITIHDRKEFAKFEEERARAKWV[pY]SPLHYSAR
# notes: Integrin β3 tail residues N-terminal of W739, PIPKIγ residues C-terminal of it (numbered 740-746 in the deposited structure); also called β3 chimera; β3-integrin/PIPKIγ peptide
# What was measured:
# Talin F3 W359A [1] = molecular target: T1, Talin F3 W359A (mouse, UniProt P26039 309-405, limits assumed); test: ITC, 1 mM peptide injected into 50 µM talin F3 W359A, 23 C, 200 mM Tris, 300 mM NaCl, pH 7.5
# T1 construct: domain: F3 sub-domain; As m1, with the mutation; also called talin (W359A) mutant
# Method: (§1) Peptide concentrations were typically at 150 to 300 μM while protein concentrations ranged from 25 to 50 μM. For the W359A mutant, the protein concentration was 50 μM and the peptide concentration was 1 mM. Prior to ITC titrations, the peptides and proteins were in buffer consisting of 200 mM Tris, 300 mM NaCl, pH 7.5. All experiments were conducted at 23 degrees Celsius. […] The bottom panel is the binding curve, calculated using the software program Origin.
# (§2) Isothermal titration calorimetry (ITC) was performed on a VP-ITC calorimeter (Microcal, Northampton, Mass.). Aliquots (8 μL) of wildtype ([…]p[…]) (SEQ ID NO: 2) or mutant chimeric peptide were injected into the cell containing wildtype or mutant talin F3 domain. Peptide concentrations were typically 150 to 300 μM while protein concentrations ranged from 25 to 50 μM. For the W359A mutant, the protein concentration was 50 μM and the peptide concentration was 1 mM. Prior to ITC titrations, the peptides and proteins were in 200 mM Tris, 300 mM NaCl, pH 7.5. In each experiment 37 injections were made. The experiments were performed at 23° C. All titrations were performed at least twice and with different protein preparations. Experimental data were analyzed using Microcal Origin software.
# Talin F3 Q381V = molecular target: T2, Talin F3 Q381V (mouse, UniProt P26039 309-405, limits assumed); test: ITC, peptide injected into talin F3 Q381V, 23 C, 200 mM Tris, 300 mM NaCl, pH 7.5
# T2 construct: domain: F3 sub-domain; As m1, with the mutation
# Method: as §1, §2
# Talin F3 W359A [2] = molecular target: T1, Talin F3 W359A; test: ITC
# Method: as §1, §2
# [3] = molecular target: T3, Talin F3 sub-domain, wild type (mouse, UniProt P26039 309-405, limits assumed); test: ITC, peptide injected into talin F3, 23 C, 200 mM Tris, 300 mM NaCl, pH 7.5
# T3 construct: domain: F3 sub-domain; U-15N labelled for NMR; also called Talin F3 wt; talin F3 domain
# Method: as §1, §2
# Talin F3 L325R = molecular target: T4, Talin F3 L325R (mouse, UniProt P26039 309-405, limits assumed); test: ITC, peptide injected into talin F3 L325R, 23 C, 200 mM Tris, 300 mM NaCl, pH 7.5
# T4 construct: domain: F3 sub-domain; As m1, with the mutation
# Method: as §1, §2
# T3 sequence (P26039 309-405 limits assumed): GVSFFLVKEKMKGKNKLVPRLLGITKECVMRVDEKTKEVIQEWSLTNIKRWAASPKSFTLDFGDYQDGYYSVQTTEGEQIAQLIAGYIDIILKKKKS
# T1 sequence (P26039 309-405 W359A limits assumed): as the sequence (P26039 309-405 limits assumed) above, with W51A counted along it
# T2 sequence (P26039 309-405 Q381V limits assumed): as the sequence (P26039 309-405 limits assumed) above, with Q73V counted along it
# T4 sequence (P26039 309-405 L325R limits assumed): as the sequence (P26039 309-405 limits assumed) above, with L17R counted along it
Binder,Kd (Talin F3 W359A [1]) [nM],Kd (Talin F3 Q381V) [nM],fold reduction of affinity against wild-type talin F3 (Talin F3 W359A [2]) [fold],Kd [3] [nM],Kd (Talin F3 L325R) [nM]
B1,106000,135,~1000,140,212
KKLLITIHDRKEAAKFEEERARAKWV[pY]SPLHYSAR (also called β3 chimera F727A; β3-F727A) [β3/PIPKIγ chimeric peptide F727A],–,–,–,118,–
KKLLITIHDRKEFAKAEEERARAKWV[pY]SPLHYSAR (also called β3 chimera F730A; β3-F730A) [β3/PIPKIγ chimeric peptide F730A],–,–,–,105,–
